In the Immune Epitope Database (IEDB):
Blank lines part the entries; values can stand above or below the sequence they belong to.

Experiments:
HLA-B*57:01 = test: IEDB peptide-MHC binding, purified MHC/direct/fluorescence; filed as Kd, often an IC50 or EC50 that approximates it; ≥ and ≤ were set here for values at or beyond the usual limits of such assays
HLA-B*58:01 = test: as above
HLA-B*15:17 = test: as above
HLA-C*15:02 = test: as above
HLA-B*83:01 = test: IEDB peptide-MHC binding, purified MHC/competitive/fluorescence; filed as Kd, often an IC50 or EC50 that approximates it; ≥ and ≤ were set here for values at or beyond the usual limits of such assays
HLA-A*68:23 = test: as above; settings: source organism: Influenza A virus (A/Fort Monmouth/1/1947-mouse adapted(H1N1))
HLA-A*32:15 = test: as above; settings: source organism: Influenza A virus (A/Fort Monmouth/1/1947-mouse adapted(H1N1))
HLA-A*32:07 = test: as above; settings: source organism: Influenza A virus (A/Fort Monmouth/1/1947-mouse adapted(H1N1))
HLA-B*45:06 = test: as above
HLA-B*15:42 = test: as above
HLA-A*02:01 [1] = test: IEDB peptide-MHC binding, cellular MHC/competitive/fluorescence; ≥ and ≤ were set here for values at or beyond the usual limits of such assays; settings: source organism: Homo sapiens
HLA-A*02:19 = test: IEDB peptide-MHC binding, purified MHC/direct/fluorescence; filed as Kd, often an IC50 or EC50 that approximates it; ≥ and ≤ were set here for values at or beyond the usual limits of such assays; settings: source organism: Francisella tularensis subsp. tularensis FSC033
HLA-B*07:02 = test: as above
HLA-B*44:02 = test: as above; settings: source organism: Francisella tularensis subsp. tularensis FSC033
HLA-B*18:01 = test: as above; settings: source organism: Francisella tularensis subsp. tularensis FSC033
HLA-A*30:01 = test: as above; settings: source organism: Francisella tularensis subsp. tularensis FSC033
HLA-B*51:01 = test: as above; settings: source organism: Francisella tularensis subsp. tularensis FSC033
HLA-A*23:01 = test: as above; settings: source organism: Francisella tularensis subsp. tularensis FSC033
HLA-A*24:03 = test: as above; settings: source organism: Francisella tularensis subsp. tularensis FSC033
HLA-B*40:01 = test: as above; settings: source organism: Francisella tularensis subsp. tularensis FSC033
HLA-A*29:02 [2] = test: as above; settings: source organism: Francisella tularensis subsp. tularensis FSC033
HLA-A*02:50 = test: as above; settings: source organism: Francisella tularensis subsp. tularensis FSC033
HLA-A*26:01 = test: IEDB peptide-MHC binding, purified MHC/competitive/fluorescence; filed as Kd, often an IC50 or EC50 that approximates it; ≥ and ≤ were set here for values at or beyond the usual limits of such assays; settings: source organism: Francisella tularensis subsp. tularensis FSC198
HLA-A*80:01 = test: IEDB peptide-MHC binding, purified MHC/direct/fluorescence; filed as Kd, often an IC50 or EC50 that approximates it; ≥ and ≤ were set here for values at or beyond the usual limits of such assays; settings: source organism: Mus musculus
HLA-C*14:02 [3] = test: IEDB peptide-MHC binding, purified MHC/competitive/fluorescence; filed as Kd, often an IC50 or EC50 that approximates it; ≥ and ≤ were set here for values at or beyond the usual limits of such assays; settings: source organism: Homo sapiens
HLA-C*06:02 [4] = test: as above; settings: source organism: Homo sapiens
HLA-A*01:01 [5] = test: as above; settings: source organism: Homo sapiens
HLA-A*29:02 [6] = test: as above; settings: source organism: Homo sapiens
HLA-C*14:02 [7] = test: IEDB peptide-MHC binding, purified MHC/direct/fluorescence; filed as Kd, often an IC50 or EC50 that approximates it; ≥ and ≤ were set here for values at or beyond the usual limits of such assays; settings: source organism: Influenza A virus (A/swine/Italy/1509-6/97(H1N1))
HLA-A*11:01 = test: as above; settings: source organism: Influenza A virus (A/New Caledonia/20/1999(H1N1))
HLA-B*46:01 = test: as above; settings: source organism: Influenza A virus (A/New Caledonia/20/1999(H1N1))
HLA-A*02:01 [8] = test: as above; settings: source organism: Influenza A virus (A/New Caledonia/20/1999(H1N1))
HLA-C*06:02 [9] = test: as above; settings: source organism: Influenza A virus (A/swine/Italy/1509-6/97(H1N1))
HLA-B*15:01 = test: as above; settings: source organism: Influenza A virus (A/New Caledonia/20/1999(H1N1))
HLA-A*02:11 = test: as above; settings: source organism: Influenza A virus(A/swine/Henan/8/2004(H9N2))
HLA-A*01:01 [10] = test: as above; settings: source organism: Influenza A virus (A/New Caledonia/20/1999(H1N1))
HLA-B*48:01 = test: as above; settings: source organism: Influenza A virus (A/New Caledonia/20/1999(H1N1))
HLA-A*69:01 = test: as above; settings: source organism: Influenza A virus (A/New Caledonia/20/1999(H1N1))
HLA-A*03:01 = test: as above; settings: source organism: Influenza A virus (A/New Caledonia/20/1999(H1N1))
HLA-B*27:05 = test: as above; settings: source organism: Influenza A virus (A/New Caledonia/20/1999(H1N1))
HLA-B*15:02 = test: as above; settings: source organism: Influenza A virus(A/swine/Henan/8/2004(H9N2))
HLA-B*08:03 = test: as above; settings: source organism: Influenza A virus(A/swine/Henan/8/2004(H9N2))
HLA-A*31:01 = test: as above; settings: source organism: Influenza A virus (A/New Caledonia/20/1999(H1N1))
HLA-A*26:03 = test: IEDB peptide-MHC binding, purified MHC/competitive/fluorescence; filed as Kd, often an IC50 or EC50 that approximates it; ≥ and ≤ were set here for values at or beyond the usual limits of such assays; settings: source organism: Influenza A virus (A/swine/Italy/1509-6/97(H1N1))
HLA-A*68:02 = test: as above; settings: source organism: Influenza A virus (A/swine/Italy/1509-6/97(H1N1))
HLA-A*26:02 = test: as above; settings: source organism: Influenza A virus (A/swine/Italy/1509-6/97(H1N1))
HLA-B*08:01 = test: as above; settings: source organism: Influenza A virus (A/swine/Italy/1509-6/97(H1N1))
HLA-B*39:01 = test: as above; settings: source organism: Influenza A virus (A/swine/Italy/1509-6/97(H1N1))
HLA-B*15:09 = test: as above; settings: source organism: Influenza A virus (A/swine/Italy/1509-6/97(H1N1))
[11] = source organism: Influenza A virus (A/finch/Canada/NS1301/2001(H3N8))
[12] = source organism: Influenza A virus (A/Fort Monmouth/1/1947-mouse adapted(H1N1))
[13] = source organism: Francisella tularensis subsp. tularensis FSC033
[14] = source organism: Influenza A virus (A/New Caledonia/20/1999(H1N1))

Sequence: GTFEFTSFF
Kd (HLA-B*57:01; [11]): 0.36 µM | Kd (HLA-B*58:01; [11]): 0.496 µM | Kd (HLA-B*15:17; [11]): 0.0059 µM | Kd (HLA-C*15:02; [12]): 3.66 µM | Kd (HLA-B*83:01; [12]): ≥ 5 µM | Kd (HLA-A*68:23): 0.0057 µM | Kd (HLA-A*32:15): 0.893 µM | Kd (HLA-A*32:07): 0.0238 µM | Kd (HLA-B*45:06; [12]): ≥ 5 µM | Kd (HLA-B*15:42; [12]): ≥ 5 µM

IC50 (HLA-A*02:01 [1]): 1.89 µM
Sequence: LLLDVPTAAVQA

Sequence: NTIEELSGY
Kd (HLA-A*02:19): ≥ 20 µM | Kd (HLA-B*07:02; [13]): ≥ 20 µM | Kd (HLA-B*57:01; [13]): ≥ 20 µM | Kd (HLA-B*44:02): ≥ 20 µM | Kd (HLA-B*18:01): ≥ 20 µM | Kd (HLA-B*58:01; [13]): ≥ 20 µM | Kd (HLA-A*30:01): ≥ 20 µM | Kd (HLA-B*51:01): ≥ 20 µM | Kd (HLA-A*23:01): ≥ 20 µM | Kd (HLA-A*24:03): ≥ 20 µM | Kd (HLA-B*40:01): ≥ 20 µM | Kd (HLA-A*29:02 [2]): 0.028 µM | Kd (HLA-A*02:50): ≥ 20 µM | Kd (HLA-A*26:01): 0.0006 µM

Kd (HLA-A*80:01): 0.109 µM | Kd (HLA-C*14:02 [3]): 0.0004 µM | Kd (HLA-B*83:01; source organism: Homo sapiens): ≥ 5 µM | Kd (HLA-C*06:02 [4]): 0.663 µM | Kd (HLA-A*01:01 [5]): 1.4 µM | Kd (HLA-B*45:06; source organism: Homo sapiens): ≥ 5 µM | Kd (HLA-B*15:42; source organism: Homo sapiens): ≥ 5 µM | Kd (HLA-A*29:02 [6]): ≤ 0.0001 µM
Sequence: TFMDHVLRY

Sequence: WMACHSAAF
Kd (HLA-B*07:02; [14]): 9.8 µM | Kd (HLA-B*57:01; [14]): ≥ 20 µM | Kd (HLA-C*14:02 [7]): 0.043 µM | Kd (HLA-A*11:01): ≥ 20 µM | Kd (HLA-B*46:01): 0.756 µM | Kd (HLA-A*02:01 [8]): ≥ 20 µM | Kd (HLA-C*06:02 [9]): ≥ 20 µM | Kd (HLA-B*15:01): 0.018 µM | Kd (HLA-A*02:11): 0.06 µM | Kd (HLA-A*01:01 [10]): ≥ 20 µM | Kd (HLA-B*48:01): 1.43 µM | Kd (HLA-B*58:01; [14]): ≥ 20 µM | Kd (HLA-B*15:17; [14]): 0.189 µM | Kd (HLA-A*69:01): ≥ 20 µM | Kd (HLA-A*03:01): ≥ 20 µM | Kd (HLA-B*27:05): 6.3 µM | Kd (HLA-B*15:02): 0.005 µM | Kd (HLA-B*08:03): 0.083 µM | Kd (HLA-C*15:02; source organism: Influenza A virus (A/swine/Italy/1509-6/97(H1N1))): ≥ 20 µM | Kd (HLA-A*31:01): ≥ 20 µM | Kd (HLA-A*26:03): 0.158 µM | Kd (HLA-A*68:02): 0.929 µM | Kd (HLA-A*26:02): 0.0004 µM | Kd (HLA-B*08:01): 0.0772 µM | Kd (HLA-B*39:01): 0.0595 µM | Kd (HLA-B*15:09): 0.6 µM
